We go through seven molecules from patent publication US20060002929A1 (published 2006).

The labels stand for the following.
B2: hOX40R-Fc (Fc fusion, human, UniProt P43489 29-214, looked up)
chain: LHCVGDTYPSNDRCCHECRPGNGMVSRCSRSQNTVCRPCGPGFYNDVVSSKPCKPCTWCNLRSGSERKQLCTATQDTVCRCRAGTQPLDSYKPGVDCAPCPPGHFSPGDNQACKPWTNCTLAGKHTLQPASNSSDAICEDRDPPATQPQETQGPPARPITVQPTEAWPRTSQGPSTRPVEVPGGRA
notes: Defined as 'the human IgG Fc domain fused to the human OX40 receptor'; also called hFc-OX40R; HFc-OX40R; not shown: Fc domain of human IgG
B7: Human Fc-OX40L (Fc fusion, UniProt P23510 51-183, looked up)
chain: QVSHRYPRIQSIKVQFTEYKKEKGFILTSQKEDEIMKVQNNSVIINCDGFYLISLKGYFSQEVNISLHYQKDEEPLFQLKKVRSVNSLMVASLTYKDKVYLNVTTDNTSLDDFHVNGGELILIHQNPGEFCVL
notes: Defined as 'the Fc domain of human IgG fused to human OX40L'; Made in 293T or COS cells; also called hFc-OX40L; HFc-OX40L; not shown: Fc domain of human IgG

The target in assay [1] is B7. Kind of assay: BIAcore, immobilized hFc-OX40L. On the technique in general: SPR reads the build-up and loss of mass on a sensor chip optically.
The target in assay [2] is B7. Kind of assay: cell-based or functional assay.
The target in assay [3] is B7. The experiment in a line: BIAcore solution equilibrium: 0.2 nM antibody pre-mixed with 20-0.005 nM hFc-OX40L, free antibody read on immobilized hFc-OX40L. Here is the method:
The binding equilibrium of four of the antibodies was assessed on a BIACore chip as described above in Example 1 with the following modifications. HFc-OX40L was immobilized to the sensor chip at a high density of 8,000 RU. Serial 2.5-fold dilutions of hFc-OX40L were prepared in sample buffer so that the final concentration of hFc-OX40L, once mixed with an anti-OX40L antibody, ranged between 20 nM to 0.005 nM. Monoclonal anti-OX40L antibody candidates were mixed with each hFc-OX40L dilution in a total of 400 μl so that the final concentration of monoclonal antibody was 0.2 nM. Samples were incubated at room temperature for at least five hours to allow samples to reach equilibrium. Samples were then injected over the immobilized hFc-OX40L surface for 30 minutes at 10 μl/min. After the sample injection, the samples were allowed to dissociate for 3 minutes, and then the surface was regenerated by injecting 8 mM glycine, pH 3.0, 1 M NaCl for 30 seconds. The binding signals obtained were proportional to the free antibody in solution at equilibrium for a given concentration of ligand. Plotting the binding signal versus ligand concentration, and using the scientific graphing software program GraphPad Prizm, the EC₅₀ values for each antibody at a given concentration in the presence of varying concentrations of hFc-OX40L were calculated.

Assay [4] concerns the target T1, 018-muOX40L (mouse, UniProt P43488).
T1 construct: also called mouse OX40L
T1 sequence (bead-bound control antigen, looked up): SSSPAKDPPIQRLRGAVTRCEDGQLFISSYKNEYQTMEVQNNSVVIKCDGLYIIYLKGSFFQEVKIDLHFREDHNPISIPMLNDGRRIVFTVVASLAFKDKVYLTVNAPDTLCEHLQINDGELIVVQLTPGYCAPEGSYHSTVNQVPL
Kind of assay: Luminex bead assay: antigen loaded on biotin beads, antibody titrated, detection anti-huIgG-PE [panel Ab C].

Assay [5] addresses B7. The experiment in a line: BIAcore solution equilibrium at 0.2 and 0.6 nM binder, dual-curve one-site fit (KinExA software). The method, then:
(§1) Specifically, BIACore chips were prepared as described above in Example 1, with the following modifications. HFc-OX40L was immobilized to the sensor chip at a high density of 8,000 RU. […] Samples were incubated at room temperature for at least five hours to allow samples to reach equilibrium. Samples were then injected over the immobilized hFc-OX40L surface for 30 minutes at 10 μl/min. After the sample injection, the samples were allowed to dissociate for 3 minutes, and then the surface was regenerated by injecting 8 mM glycine, pH 3.0, 1 M NaCl for 30 seconds. The binding signals, measured in RU, obtained were proportional to the free antibody in solution at equilibrium for a given concentration of ligand. The dissociation equilibrium constant (KD) was obtained from nonlinear regression analysis of the competition curves using a dual-curve one-site homogeneous binding model (KinExA software v. 2.3, Sapidyne Instruments Inc., Boise Id.).

Assay [6] has as its target T1, 018-muOX40L. Kind of assay: Luminex bead assay: antigen loaded on biotin beads, antibody titrated, detection anti-huIgG-PE [panel Ab F].
In the assay “hOX40R-Fc” the target is B2. The experiment in a line: BIAcore solution equilibrium at 0.2 and 0.6 nM binder, dual-curve one-site fit (KinExA software). The method, then: as §1

B1: Ab B (antibody, V domains shown)
VH: QVQLQESGPGLVKPSETLSLTCTVSGGSISTYYWNWIRQPAGKGLEWIGRIYISGSTNYNPSLKSRVTMSVDTSKNQFSLKLSSVTAADTAVYYCARDRVDIVATKGHYYYGMDVWGQGTTVTVSS
VL: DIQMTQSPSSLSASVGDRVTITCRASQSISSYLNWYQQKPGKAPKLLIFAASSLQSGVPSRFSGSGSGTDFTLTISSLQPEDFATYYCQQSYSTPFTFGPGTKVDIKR
notes: Human anti-OX40L monoclonal antibody
B1 yielded a concentration giving a half-maximal response (EC50) with Human Fc-OX40L [1] of 0.6 nM. In addition, the “IL-2 Inhibition (IC50 [nM])” value in the assay with Human Fc-OX40L [2] came out at 0.49 nM.
The matching figures for B2: 1 nM and 5.2 nM.

B3: Ab C (antibody, V domains shown)
VH: QVQLVESGGGVVQPGRSLRLSCAASGFTFSFYGMHWVRQAPGKGLEWVAVIWYDGSNKYYADSVKGRFTISRDNSKNTLYLQMNSLRAEDTAVYYCARGGYDYVWGSYRRNSDFDYWGQGTLVTVSS
VL: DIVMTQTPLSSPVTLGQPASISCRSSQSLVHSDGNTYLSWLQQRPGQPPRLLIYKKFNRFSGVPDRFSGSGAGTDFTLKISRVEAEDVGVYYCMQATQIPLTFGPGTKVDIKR
notes: as for B1
With B3, the half-maximal effective concentration (EC50) with Human Fc-OX40L [1] came out at 0.1 nM; in the assay with Human Fc-OX40L [3], 0.101 nM. The binding result in the assay with 018-muOX40L [4] is “no binding (tested: 100 nM)”. The “IL-2 Inhibition (IC50 [nM])” value with Human Fc-OX40L [2] was 2 nM. For the same molecule, in the assay with Human Fc-OX40L [5], binding was put at a Kd of 0.033 nM.

B4: Ab A (antibody, V domains shown)
VH: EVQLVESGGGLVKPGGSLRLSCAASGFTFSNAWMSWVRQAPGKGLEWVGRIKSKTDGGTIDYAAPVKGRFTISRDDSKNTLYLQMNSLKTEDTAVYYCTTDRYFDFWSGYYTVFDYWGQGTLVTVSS
VL: DIQMTQSPSSLSASVGDRVTITCRASQGISNHLVWYQQKVGKVPKLLIYAASTLQSGVPSRFSGSGSGTDFTLTISSLQPEDVATYYCQKFNSAPFTFGPGTKVDIKR
notes: Human anti-OX40L monoclonal antibody from transgenic mice
For B4, the EC50 in the assay with Human Fc-OX40L [1] stood at 1 nM. For the same molecule, in the assay with Human Fc-OX40L [2], the “IL-2 Inhibition (IC50 [nM])” value was determined as 0.32 nM.

B5: Ab E (antibody, V domains shown)
VH: EVQLVESGGGLVKPGGSLRLSCAASGFTFSNAWMSWVRQAPGKGLEWVGRIKRKTDGGTIDYAAPVKGRFTISRADSKNTLFLQMNSLITEDTAVYYCTISYYYDYSGYYYVDHWGQGTLVTVSS
VL: DIQMTQSPSSLSASVGDRVTITCRASQGISNHLVWYQQKPGKVPKLLIYAASTLQSGVPSRFSGSGSGTDFTLTISSLQPEDVATYYCQKYNSAPLTFGGGTKVEIKR
notes: as for B1
Take B5: the figures for the EC50 with Human Fc-OX40L [1] and in the assay with Human Fc-OX40L [3] were 0.69 nM and 0.686 nM, respectively. In addition, in the assay with Human Fc-OX40L [2], the “IL-2 Inhibition (IC50 [nM])” value came to 0.58 nM.

B6: Ab F (antibody, V domains shown)
VH: EVQLVESGGGLVKPGGSLRLSCAASGFTFSNAWMSWVRQAPGKGLEWVGRIKRKTDGGTIDYAAPVKGRFTISRADSKNTLFLQMNSLITEDTAVYYCTISYYYDYSGYYYVDHWGQGTLVTVSS
VL: DIQMTQSPSSLSASVGDRVTITCRASQGISNHLVWYQQKPGKVPKLLIYAASTLQSGVPSRFSGSGSGTDFTLTISSLQPEDVATYYCQKYNSAPLTFGGGTKVEIKR
notes: as for B1
B6: in the assay with 018-muOX40L [6], the binding result was “no binding (tested: 100 nM)”. This molecule also came in with a half-maximal effective concentration (EC50) in the assay with Human Fc-OX40L [3] of 0.402 nM. Besides, in the assay with Human Fc-OX40L [5], the Kd worked out at 0.12 nM.
Molecule B7 showed a dissociation constant (Kd) in the assay with hOX40R-Fc of 1 nM.

For orientation: EC50 means the concentration at which the effect is half-maximal. As a reminder, the Kd is the constant that tells how readily two partners part at equilibrium. The low end stands for tighter binding, the high end for weaker binding.
